Measurements from publication PMC4336326, “The Nucleocapsid Protein of Human Coronavirus NL63” (PLoS ONE, 2015).

B1: HCoV-NL63 nucleocapsid (N) protein, complete (natural protein)
chain: MASVNWADDRAARKKFPPPSFYMPLLVSSDKAPYRVIPRNLVPIGKGNKDEQIGYWNVQERWRMRRGQRVDLPPKVHFYYLGTGPHKDLKFRQRSDGVVWVAKEGAKTVNTSLGNRKRNQKPLEPKFSIALPPELSVVEFEDRSNNSSRASSRSSTRNNSRDSSRSTSRQQSRTRSDSNQSSSDLVAAVTLALKNLGFDNQSKSPSSSGTSTPKKPNKPLSQPRADKPSQLKKPRWKRVPTREENVIQCFGPRDFNHNMGDSDLVQNGVDAKGFPQLAELIPNQAALFFDSEVSTDEVGDNVQITYTYKMLVAKDNKNLPKFIEQISAFTKPSSIKEMQSQSSHVAQNTVLNASIPESKPLADDDSAIIEIVNEVLH
notes: also called WT; complete NL63-N protein; source: E. coli BL21, purified (Ni Sepharose, Resource Q, Superdex S75) to about 80% homogeneity

Tests used:
[1] = target: C-terminal domain of the HCoV-NL63 nucleocapsid protein (HCoV-NL63 (isolate Amsterdam 1)) (UniProt Q6Q1R8); experiment: SEC; CTD analysed by size exclusion chromatography; two peaks taken as dimer and monomer from retention time and SDS-PAGE; column and buffer not given
[2] = target: C-terminal domain of the HCoV-NL63 nucleocapsid protein (HCoV-NL63 (isolate Amsterdam 1)) (UniProt Q6Q1R8); experiment: cross-linking; 50 ug of protein with 0.007% glutaraldehyde, 15 min at room temperature, stopped with Tris, then SDS-PAGE (Coomassie)
[3] = target: the molecule itself; experiment: native MS; ESI mass spectrometry (MicroTOF-QII, positive ionization mode) of samples dialysed into 50 mM NH4HCO3, pH 7.8; masses of monomer and dimer from deconvolved spectra

Row | Molecule | percent of the protein present as dimers [1] [%] | stoichiometry N [1] | stoichiometry N [2] | stoichiometry N [3]
1 | C-terminal domain of the HCoV-NL63 nucleocapsid protein (from UniProt Q6Q1R8 221-340) (domain or fragment) | 40 | 2 | > 2 | 
2 | B1 |  |  |  | 2
